What was measured:
CW6W32 (rhHLA-Cw6/TRAT) [1] = biological target: T1, CW6W32 (rhHLA-Cw6/TRAT) (human); experiment: SPR ProteOn XPR36, captured mAb; valid kinetic fit;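 note: Anti-HLA-Cw6 mAbs captured at 100–200 RU, antigen flowed in PBST, 180 s association and 900 s dissociation, double-referenced sensorgrams globally fit to a 1:1 Langmuir model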
T1 construct: also called CW6W32.009; rHLA-Cw6/TRAT
Procedure: (§1) Anti-HLA-Cw6 mAbs were captured at ligand densities ranging from 100 to 200 response units. […] All analyses were conducted in PBST at 100 μL/min flow rate with association and dissociation times of 180 and 900 seconds, respectively. […] Analyte raw data was double referenced by subtraction of the blank surface response at “interspots” (to correct for refractive index changes and any non-specific interactions with the chip surface) and of the buffer blank response (to correct for any baseline drift resulting from mAb dissociation over time). Referenced data were globally fit to a 1:1 simple Langmuir binding model. Kinetic parameters were calculated for each mAb/antigen combination or interaction using Bio-Rad ProteOn Manager software (version 3.1.0.6) with parameter (kon, koff, Rmax) scope and type set to “Grouped” and “Fitted,” respectively.

[2] = biological target: T2, CW6W36 (rhHLA-Cw6/ADAMTSL5) (human); experiment: SPR ProteOn XPR36, captured mAb; valid kinetic fit;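 note: Anti-HLA-Cw6 mAbs captured at 100–200 RU, antigen flowed in PBST, 180 s association and 900 s dissociation, double-referenced sensorgrams globally fit to a 1:1 Langmuir model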
T2 construct: also called CW6W36.002; rHLA-Cw6/ADAMTSL5
Procedure: as §1

[3] = biological target: T3, CW6W3.ECO.PP.002/.003 (rhHLA-Cw6/ARF) (human); experiment: SPR ProteOn XPR36, captured mAb; valid kinetic fit;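 note: Anti-HLA-Cw6 mAbs captured at 100–200 RU, antigen flowed in PBST, 180 s association and 900 s dissociation, double-referenced sensorgrams globally fit to a 1:1 Langmuir model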
T3 construct: also called rhHLA-Cw6/ARFN; rHLA-Cw6/ARFN
Procedure: as §1

[4] = biological target: T4, rhHLA-B7 stably expressed on K562 cells (K562-rhHLA-B7) (human, UniProt P01889 25-362); experiment: MSD cell binding
T4 construct: also called K562-rehHLA-B7

CW6W32 (rhHLA-Cw6/TRAT) [5] = biological target: T1, CW6W32 (rhHLA-Cw6/TRAT); experiment: SPR Biacore 8K, captured mAb; Kinetic fit not valid
CW6W55.ECO.PP.002 [6] = experiment: as above
CW6W54.001 = experiment: as above
[7] = biological target: T4, rhHLA-B7 stably expressed on K562 cells …; experiment: MSD cell binding; remark: listed apart in the source
Procedure: (§2) The blocking buffer was aspirated, 20 μl of prepared test antibodies were added to appropriate wells, and the plate was incubated further for 1 hour at RT. The plate was washed three times with 80 μl PBS, and then each well received 20 μl/well of a 1 μg/ml SulfoTag labeled secondary detection antibody solution. After a 1-hour incubation at RT, the plate was washed three times with 80 μl PBS, and 50 μl/well of a 1× MSD Read Buffer T (surfactant free) (MSD #R92TD-1) was added and the plate was read on an MSD Sector 600 Plate Reader.

[8] = biological target: T5, rhHLA-Cw6 stably expressed on K562 cells (K562-rhHLA-Cw6) (human, UniProt P10321 25-366); experiment: MSD cell binding
T5 construct: also called K562-HLA-Cw6
Procedure: as §2
T5 MHC heavy: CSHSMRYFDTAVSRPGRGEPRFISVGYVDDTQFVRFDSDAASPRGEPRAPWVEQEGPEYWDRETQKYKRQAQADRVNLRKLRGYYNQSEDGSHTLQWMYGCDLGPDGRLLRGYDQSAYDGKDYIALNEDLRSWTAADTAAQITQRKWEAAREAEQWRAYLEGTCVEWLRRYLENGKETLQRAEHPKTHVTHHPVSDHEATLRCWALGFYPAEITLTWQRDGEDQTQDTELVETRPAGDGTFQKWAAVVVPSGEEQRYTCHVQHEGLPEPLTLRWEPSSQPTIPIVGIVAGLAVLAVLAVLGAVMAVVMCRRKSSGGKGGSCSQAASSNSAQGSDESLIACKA

CW6W53.001 = experiment: SPR Biacore 8K, captured mAb; Acceptable fit
Source text: (§3) To further characterize the ability of the antibodies to differentiate between class I MHC molecules.

CW6W35.001 = experiment: SPR Biacore 8K, captured mAb; Acceptable fit
Source text: as §3

CW6W47.001 = experiment: SPR Biacore 8K, captured mAb; Acceptable fit
Source text: as §3

CW6W51.001 = experiment: SPR Biacore 8K, captured mAb; Acceptable fit
Source text: as §3

CW6W56.ECO.PP.001 = experiment: SPR Biacore 8K, captured mAb; Acceptable fit
Source text: as §3

[9] = biological target: T2, CW6W36 (rhHLA-Cw6/ADAMTSL5); experiment: SPR Biacore 8K, captured mAb; Acceptable fit
Source text: as §3

CW6W55.ECO.PP.002 [10] = experiment: SPR Biacore 8K, captured mAb; Acceptable fit
Source text: as §3
A24_A*24:02 = biological target: T6, A24_A*24:02 (human, UniProt A*24:02); experiment: LABScreen beads
T6 construct: on LABScreen bead; also called HLA-A*24:02 (LABScreen class I bead)
T6 heavy chain: not shown

T4 sequence (P01889 25-362 limits assumed): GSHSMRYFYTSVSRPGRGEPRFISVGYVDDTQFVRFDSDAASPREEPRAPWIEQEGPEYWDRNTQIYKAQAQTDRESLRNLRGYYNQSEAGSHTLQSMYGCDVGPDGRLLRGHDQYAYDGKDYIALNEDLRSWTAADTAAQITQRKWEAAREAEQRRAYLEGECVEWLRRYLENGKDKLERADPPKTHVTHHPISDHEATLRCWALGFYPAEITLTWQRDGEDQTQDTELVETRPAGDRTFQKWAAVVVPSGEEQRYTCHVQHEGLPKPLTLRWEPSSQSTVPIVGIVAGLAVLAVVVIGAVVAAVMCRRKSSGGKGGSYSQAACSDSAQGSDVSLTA

B1: CW6B233 (antibody, V domains shown)
VH: QVQLQESGPGLVKPSETLSLTCTVSGNSIRSYYWSWIRQPAGKGLEWIGRIYISGNTNYNPSLKSRVTMSIDTSKNQFSLKLSSVTAADTAVYYCARLSGIDAFDIWGQGTMVTVSS
VL: DIQMTQSPSSLSASVGDRVTITCQASQDITNYLNWYQQKPGKAPKLLIYDASNLETGVPSRFSGSGSGTDFTFTISSLQPEDFATYYCQQYDNLPITFGQGTRLEIK
notes: also called CW6B233.001; CW6M233 (DNA ID)
Question: B1 was tested. Which Kd (CW6W32 (rhHLA-Cw6/TRAT) [1]) did it give?
Answer: Its Kd is 1.55 nM.

Question: And the koff (CW6W32 (rhHLA-Cw6/TRAT) [1])?
Answer: Its koff is 0.00234 s⁻¹.

Question: And the kon (CW6W32 (rhHLA-Cw6/TRAT) [1])?
Answer: Its kon is 1.51e+06 M⁻¹ s⁻¹.

Question: What about the Kd [2] of the same binder?
Answer: The Kd was 1 nM.

Question: And the koff [2]?
Answer: The koff was 0.00355 s⁻¹.

Question: And the kon [2]?
Answer: Its kon is 3.56e+06 M⁻¹ s⁻¹.

Question: What about the Kd [3] of the same binder?
Answer: The Kd was 0.29 nM.

Question: What about the koff [3] of the same binder?
Answer: The koff was 0.000293 s⁻¹.

Question: And the kon [3]?
Answer: Its kon is 1.02e+06 M⁻¹ s⁻¹.

Question: Does B1 bind [4]?
Answer: Result: no binding

Question: And the Kd (CW6W32 (rhHLA-Cw6/TRAT) [5])?
Answer: Its Kd is 3.73 nM.

Question: What about the koff (CW6W32 (rhHLA-Cw6/TRAT) [5]) of the same binder?
Answer: Its koff is 0.00203 s⁻¹.

Question: And the kon (CW6W32 (rhHLA-Cw6/TRAT) [5])?
Answer: Its kon is 544000 M⁻¹ s⁻¹.

Question: And the Kd (CW6W55.ECO.PP.002 [6])?
Answer: Its Kd is 7.3 nM.

Question: And the koff (CW6W55.ECO.PP.002 [6])?
Answer: Its koff is 1.22 s⁻¹.

Question: What about the kon (CW6W55.ECO.PP.002 [6]) of the same binder?
Answer: Its kon is 1.67e+08 M⁻¹ s⁻¹.

Question: What about the Kd (CW6W54.001) of the same binder?
Answer: The Kd was 0.798 nM.

Question: And the koff (CW6W54.001)?
Answer: The koff was 0.000484 s⁻¹.

Question: What about the kon (CW6W54.001) of the same binder?
Answer: Its kon is 607000 M⁻¹ s⁻¹.

Question: What about the “HLA-B7 Specific (K562-rhHLA-B7/K562 Parent binding signal)” value [7] of the same binder?
Answer: The value was 0.8 ratio.

Question: What about the “HLA-Cw6 Selective (K562-rhHLA-Cw6 specific/K562-rhHLA-B7 specific)” value [8] of the same binder?
Answer: The value was 44 ratio.

Question: What about the “HLA-Cw6 Specific (K562-rhHLA-Cw6/K562 Parent binding signal)” value [8] of the same binder?
Answer: Its value is 36 ratio.

Question: What about the Kd (CW6W53.001) of the same binder?
Answer: Its Kd is 2.09 nM.

Question: What about the koff (CW6W53.001) of the same binder?
Answer: Its koff is 0.00073 s⁻¹.

Question: And the kon (CW6W53.001)?
Answer: Its kon is 350000 M⁻¹ s⁻¹.

Question: And the Kd (CW6W35.001)?
Answer: The Kd was 3.59 nM.

Question: And the koff (CW6W35.001)?
Answer: Its koff is 0.000758 s⁻¹.

Question: What about the kon (CW6W35.001) of the same binder?
Answer: The kon was 211000 M⁻¹ s⁻¹.

Question: What about the Kd (CW6W47.001) of the same binder?
Answer: Its Kd is 9.63 nM.

Question: And the koff (CW6W47.001)?
Answer: The koff was 0.00801 s⁻¹.

Question: And the kon (CW6W47.001)?
Answer: The kon was 832000 M⁻¹ s⁻¹.

Question: And the Kd (CW6W51.001)?
Answer: The Kd was 1.18 nM.

Question: What about the koff (CW6W51.001) of the same binder?
Answer: Its koff is 0.000514 s⁻¹.

Question: What about the kon (CW6W51.001) of the same binder?
Answer: Its kon is 437000 M⁻¹ s⁻¹.

Question: And the Kd (CW6W56.ECO.PP.001)?
Answer: The Kd was 1.26 nM.

Question: What about the koff (CW6W56.ECO.PP.001) of the same binder?
Answer: The koff was 0.00107 s⁻¹.

Question: What about the kon (CW6W56.ECO.PP.001) of the same binder?
Answer: Its kon is 849000 M⁻¹ s⁻¹.

Question: And the Kd [9]?
Answer: The Kd was 3.82 nM.

Question: What about the koff [9] of the same binder?
Answer: Its koff is 0.00433 s⁻¹.

Question: What about the kon [9] of the same binder?
Answer: The kon was 1.14e+06 M⁻¹ s⁻¹.

B2: CW6B228 (antibody, V domains shown)
VH: QVQLQESGPGLVKPSETLSLTCTVSGNSIRSYYWSWIRQPAGKGLEWIGRIYISGNTNYNPSLKSRVTMSIDTSKNQFSLKLSSVTAADTAVYYCARLSGIDAFDIWGQGTMVTVSS
VL: DIQMTQSPSSLSASVGDRVTITCQASQDINNYLNWYQQKPGKAPKLLIYDASSLETGVPSRFSGSGSGTDFTFTISSLQPEDFATYYCQQYDDLPITFGQGTRLEIK
notes: also called CW6B228.001; CW6M228 (DNA ID)
Question: Which Kd (CW6W32 (rhHLA-Cw6/TRAT) [1]) does the source give for B2 here?
Answer: Its Kd is 0.09 nM.

Question: What about the koff (CW6W32 (rhHLA-Cw6/TRAT) [1]) of the same binder?
Answer: The koff was 0.000534 s⁻¹.

Question: What about the kon (CW6W32 (rhHLA-Cw6/TRAT) [1]) of the same binder?
Answer: Its kon is 5.98e+06 M⁻¹ s⁻¹.

Question: And the Kd [2]?
Answer: Its Kd is 0.05 nM.

Question: And the koff [2]?
Answer: The koff was 0.000732 s⁻¹.

Question: What about the kon [2] of the same binder?
Answer: The kon was 1.52e+07 M⁻¹ s⁻¹.

Question: And the Kd [3]?
Answer: Its Kd is 0.04 nM.

Question: What about the koff [3] of the same binder?
Answer: Its koff is 0.000178 s⁻¹.

Question: What about the kon [3] of the same binder?
Answer: Its kon is 4.89e+06 M⁻¹ s⁻¹.

Question: Does B2 bind [4]?
Answer: Result: no binding

Question: And the “HLA-B7 Specific (K562-rhHLA-B7/K562 Parent binding signal)” value [7]?
Answer: The value was 1 ratio.

Question: What about the “HLA-Cw6 Selective (K562-rhHLA-Cw6 specific/K562-rhHLA-B7 specific)” value [8] of the same binder?
Answer: Its value is 78 ratio.

Question: And the “HLA-Cw6 Specific (K562-rhHLA-Cw6/K562 Parent binding signal)” value [8]?
Answer: Its value is 75 ratio.

B3: CW6B230 (antibody, V domains shown)
VH: QVQLQESGPGLVKPSETLSLTCTVSGNSISNYYWSWIRQPAGKGLEWIGRIYITGNTNYNPSLKSRVTMSLDTSKNQFSLKLSSVTAADTAVYYCARLSGIDAFDIWGQGTMVTVSS
VL: DIQMTQSPSTLSASVGDRVTFTCQASQDITKYLNWYQQKPGKAPKLLIYDASNLETGVPSRFSGSGSGTDFTFTISSLQPEDFATYYCQQYDDLPITFGQGTRLEIK
notes: also called CW6B230.001; CW6M230 (DNA ID)
Question: For B3, which Kd (CW6W54.001) is on record?
Answer: Its Kd is 1.4 nM.

Question: What about the koff (CW6W54.001) of the same binder?
Answer: Its koff is 0.000655 s⁻¹.

Question: What about the kon (CW6W54.001) of the same binder?
Answer: The kon was 467000 M⁻¹ s⁻¹.

Question: What about the Kd (CW6W56.ECO.PP.001) of the same binder?
Answer: The Kd was 2.07 nM.

Question: What about the koff (CW6W56.ECO.PP.001) of the same binder?
Answer: Its koff is 0.00295 s⁻¹.

Question: And the kon (CW6W56.ECO.PP.001)?
Answer: Its kon is 1.42e+06 M⁻¹ s⁻¹.

Question: What about the Kd (CW6W55.ECO.PP.002 [10]) of the same binder?
Answer: The Kd was 8.9 nM.

Question: And the koff (CW6W55.ECO.PP.002 [10])?
Answer: Its koff is 0.00655 s⁻¹.

Question: What about the kon (CW6W55.ECO.PP.002 [10]) of the same binder?
Answer: Its kon is 737000 M⁻¹ s⁻¹.

Question: Does B3 bind (A24_A*24:02)?
Answer: Result: no binding (tested: 10 µg/ml)
